In test [1] the target is T1, integrin αVβ3 (human), P06756.
T1 chain 1: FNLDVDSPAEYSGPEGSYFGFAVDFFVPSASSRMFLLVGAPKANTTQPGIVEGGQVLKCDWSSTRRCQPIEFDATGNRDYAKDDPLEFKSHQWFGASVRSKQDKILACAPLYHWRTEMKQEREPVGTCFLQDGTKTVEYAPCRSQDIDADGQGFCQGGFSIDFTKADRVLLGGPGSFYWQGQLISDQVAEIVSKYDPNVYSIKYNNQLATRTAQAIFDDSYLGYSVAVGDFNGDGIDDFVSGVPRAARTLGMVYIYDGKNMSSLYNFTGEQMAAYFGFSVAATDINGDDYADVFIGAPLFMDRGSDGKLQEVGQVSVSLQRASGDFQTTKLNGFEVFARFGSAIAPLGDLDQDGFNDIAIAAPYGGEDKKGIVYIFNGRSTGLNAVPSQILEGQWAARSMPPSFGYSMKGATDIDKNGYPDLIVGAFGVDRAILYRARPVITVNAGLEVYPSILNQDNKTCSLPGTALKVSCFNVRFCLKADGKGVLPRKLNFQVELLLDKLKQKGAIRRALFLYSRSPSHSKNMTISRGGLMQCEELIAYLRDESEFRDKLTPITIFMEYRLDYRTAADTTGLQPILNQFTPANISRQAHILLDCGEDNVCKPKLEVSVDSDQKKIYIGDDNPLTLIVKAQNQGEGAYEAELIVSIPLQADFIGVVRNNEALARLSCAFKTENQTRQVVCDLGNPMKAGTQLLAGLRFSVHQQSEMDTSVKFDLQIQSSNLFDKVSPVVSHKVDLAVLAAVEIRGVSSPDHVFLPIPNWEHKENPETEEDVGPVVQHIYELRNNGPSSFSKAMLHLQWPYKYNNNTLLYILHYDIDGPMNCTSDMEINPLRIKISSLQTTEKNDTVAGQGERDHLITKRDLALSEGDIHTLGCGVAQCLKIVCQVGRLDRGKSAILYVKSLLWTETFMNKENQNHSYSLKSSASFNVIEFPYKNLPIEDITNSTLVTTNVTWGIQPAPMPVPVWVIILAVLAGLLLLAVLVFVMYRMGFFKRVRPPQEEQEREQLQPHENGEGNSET
T1 chain 2: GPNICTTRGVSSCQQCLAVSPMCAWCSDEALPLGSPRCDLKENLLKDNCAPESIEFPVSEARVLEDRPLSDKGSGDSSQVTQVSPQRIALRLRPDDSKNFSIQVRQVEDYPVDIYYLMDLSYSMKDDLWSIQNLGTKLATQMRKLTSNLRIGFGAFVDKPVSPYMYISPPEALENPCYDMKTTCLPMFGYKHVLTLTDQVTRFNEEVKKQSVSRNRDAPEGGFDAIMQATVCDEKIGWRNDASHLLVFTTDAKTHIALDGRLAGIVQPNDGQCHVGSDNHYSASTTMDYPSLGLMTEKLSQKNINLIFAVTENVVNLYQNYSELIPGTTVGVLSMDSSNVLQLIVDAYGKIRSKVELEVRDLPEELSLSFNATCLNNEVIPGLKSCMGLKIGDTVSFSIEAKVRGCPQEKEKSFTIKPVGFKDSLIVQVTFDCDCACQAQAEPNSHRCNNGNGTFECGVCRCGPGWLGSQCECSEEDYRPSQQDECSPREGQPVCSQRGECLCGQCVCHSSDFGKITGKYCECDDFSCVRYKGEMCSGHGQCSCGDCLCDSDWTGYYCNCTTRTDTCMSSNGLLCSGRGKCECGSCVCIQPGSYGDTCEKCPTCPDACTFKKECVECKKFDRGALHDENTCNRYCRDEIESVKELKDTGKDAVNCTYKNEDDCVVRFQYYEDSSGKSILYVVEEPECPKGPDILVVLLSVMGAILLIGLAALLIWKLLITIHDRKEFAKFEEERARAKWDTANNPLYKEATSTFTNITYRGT
Nature of the test: SPR (BIAcore), ratio of Kd.

For test [2] the target is unchanged. Nature of the test: SPR (BIAcore). For orientation: SPR reads the build-up and loss of mass on a sensor chip optically.
For test [3] the target is unchanged. Nature of the test: SPR (BIAcore), Fab over immobilized αVβ3.
Test [4] has as its target T2, integrin αVβ3 (human, UniProt P06756 31-1048; P05106 27-788).
T2 construct: mature; biotinylated in capture lift and capture ELISA; also on M21 melanoma cells in some assays; also called vitronectin receptor; αVβ3 receptor
Nature of the test: ELISA screen of the position 49 library (target printed αvβ5 here, αvβ3 in paragraph 179). (In general: An ELISA detects its analyte on a solid surface through an enzyme-linked reagent.)

The next test addresses T3, integrin αVβ5 (human, UniProt P06756 31-1048; P18084 24-799).
T3 construct: mature
Nature of the test: ELISA on coated integrin, detection with goat anti-human IgG alkaline phosphatase.

The target in test [5] is T2, integrin αVβ3. Nature of the test: SPR (BIAcore).
The target of test [6] is T2, integrin αVβ3. Nature of the test: SPR (BIACORE), as in Example VI.
Protocol: The affinities of select variants were further characterized by utilizing surface plasmon resonance (BIAcore) to measure the association and dissociation rates of purified Fab with immobilized αVβ₃. […] To obtain association rate constants (kₒₙ), the binding rate at five different Fab concentrations, ranging from 5-40 μg/ml in 50 mM Tris-HCl, pH 7.4, 100 mM NaCl, 2 mM CaCl₂, and 1 mM MgCl₂, was determined at a flow rate of 10 μl/min. Dissociation rate constants (koff) were the average of five measurements obtained by analyzing the dissociation phase at an increased flow rate (40 μl/min). Sensorgrams were analyzed with the BIAevaluation 2.1 program (Pharmacia). Residual Fab was removed after each measurement with 10 mM HCl, 2 mM CaCl₂ and 1 mM MgCl₂.
Test [7] addresses T2, integrin αVβ3. Kind of test: ELISA titration of Fab on immobilized αVβ3.
Protocol: For ELISA titration of Fab on immobilized αVβ₃ and the related integrins αVβ₅ and αIIbβ₃, Immulon II microtiter plates were coated with 1 μg/ml purified receptor in 20 mM Tris, pH 7.4, 150 mM NaCl, 2 mM CaCl, 1 mM MgCl₂, 1 mM MnCl₂, washed once, and blocked in 3% BSA in 50 mM Tris, pH 7.4, 100 mM NaCl, 2 mM CaCl₂, 1 mM MgCl₂ for 1 h at 25° C. […] Just prior to use, the plates were washed two times and were then incubated 1 h at 25° C. with various dilutions of Fab. […] All dilutions and washes were in 50 mM Tris-HCl, pH 7.4, 100 mM NaCl, 2 mM CaCl₂, and 1 mM MgCl₂.
Test [8] has as its target T2, integrin αVβ3. Kind of test: inhibition of binding of 0.1 µg/ml biotinylated fibrinogen to immobilized αVβ3, 3 h at 37 °C, detection with NeutrAvidin alkaline phosphatase.

Where a chain is given by its changes, count along the chain named.

The term Kd denotes the equilibrium constant for the complex coming apart. The koff is the rate constant with which the complex falls apart. By kon is commonly meant the second-order rate constant of association. A higher kon goes with fast association.

T3 sequence (P18084 24-799, chain 2 of 2, one chain of several): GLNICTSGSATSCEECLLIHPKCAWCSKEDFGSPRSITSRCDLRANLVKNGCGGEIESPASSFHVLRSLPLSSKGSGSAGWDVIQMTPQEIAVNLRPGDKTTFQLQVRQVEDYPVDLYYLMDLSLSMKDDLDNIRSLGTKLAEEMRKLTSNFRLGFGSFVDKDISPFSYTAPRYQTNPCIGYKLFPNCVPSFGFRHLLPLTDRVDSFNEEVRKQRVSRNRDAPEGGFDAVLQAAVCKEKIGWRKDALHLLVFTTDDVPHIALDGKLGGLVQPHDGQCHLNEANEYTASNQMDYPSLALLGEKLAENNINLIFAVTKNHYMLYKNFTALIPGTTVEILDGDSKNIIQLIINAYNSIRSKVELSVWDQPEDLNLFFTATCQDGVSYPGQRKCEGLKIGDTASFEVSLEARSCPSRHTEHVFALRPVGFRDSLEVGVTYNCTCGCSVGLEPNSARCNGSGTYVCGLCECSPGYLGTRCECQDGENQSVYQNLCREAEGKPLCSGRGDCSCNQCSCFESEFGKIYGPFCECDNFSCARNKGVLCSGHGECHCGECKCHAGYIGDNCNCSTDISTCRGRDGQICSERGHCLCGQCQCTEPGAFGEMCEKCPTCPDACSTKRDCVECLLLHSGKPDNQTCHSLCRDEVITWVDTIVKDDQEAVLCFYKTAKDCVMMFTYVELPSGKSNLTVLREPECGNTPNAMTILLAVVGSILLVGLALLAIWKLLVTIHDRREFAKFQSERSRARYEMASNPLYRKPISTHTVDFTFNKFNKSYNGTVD
Protocol for integrin αVβ5: Specifically, binding specificity was assessed by measuring binding to αIIbβ₃, the major integrin expressed on platelets, and to αVβ₅ an integrin found prevalent on endothelial cells and connective tissue cell types.
Antibody binding activity was assessed by ELISA using a goat anti-human IgG-alkaline phosphatase conjugate.

B1: LM609 grafted antibody combinatorial clone V357D (Fab)
chain 1: QVQLVESGGGVVQPGRSLRLSCAASGFTFSSYDMSWVRQAPGKGLEWVAKVSSGGGSTYYLDTVQGRFTISRDNSKNTLYLQMNSLRAEDTAVYYCARHNYGSFADWGQGTTVTVSS
chain 2: EIVLTQSPATLSLSPGERATLSCQASQSISNFLHWYQQRPGQAPRLLIRYRSQSISGIPARFSGSGSGTDFTLTISSLEPEDFAVYYCQQSGSWPHTFGGGTKVEIK
modifications: not checked
On to B1, for which the fold enhanced affinity over parent LM609 grafted antibody in test [1] was more than 50 fold. In [2], this molecule had a fold slower dissociation rate of more than 10 fold. In test [3], this molecule showed an equilibrium dissociation constant (Kd) of 0.5 nM, a koff of 0.00014 s⁻¹ and a kon of 279000 M⁻¹ s⁻¹.

B2: LM609 grafted antibody clone with Met at position 49 of the light chain (Fab, V domains shown)
VH: B1 chain 1 with D106Y
VL: B1 chain 2 with F32H, R49M
notes: From the library of 19 non-donor residues at light chain position 49
B2: in the test with integrin αVβ3 [4], the binding result is recorded as “binds”.

B3: Vitaxin (antibody, V domains shown)
VH: B1 chain 1 with D106Y
VL: B1 chain 2 with F32H, R49K
notes: also called huLM609M13 1135-4; grafted LM609
On to B3, for which the binding result in the test with integrin αVβ5 is reported as “no binding (tested: about 2000 ng/ml)”.

B4: LM609 grafted antibody combinatorial clone 6H6 (Fab, V domains shown)
VH: B1 chain 1 with Y101H, D106S
VL: B1 chain 2 with F32H, H96L
notes: Fab
As to B4, the “fold slower dissociation rate” value in the test with integrin αVβ3 [5] is more than 10 fold. In the test with integrin αVβ3 [6], this molecule gave a Kd of 0.62 nM.

B5: LM609 grafted antibody variant T92 (Fab, V domains shown)
VH: B1 chain 1 with D106Y
VL: B1 chain 2 with F32H, G92T
notes: Fab
For B5, the “fold enhanced binding over LM609 grafted antibody” value (“fold enhanced binding” below) in the test with integrin αVβ3 [7] was more than 3 fold.

B6: LM609 grafted antibody variant S51 (Fab, V domains shown)
VH: B1 chain 1 with D106Y
VL: B1 chain 2 with F32H, R51S
notes: Fab
On to B6, for which, in the test with integrin αVβ3 [7], the “fold enhanced binding” value was more than 3 fold.

B7: LM609 grafted antibody variant T27 (Fab, V domains shown)
VH: B1 chain 1 with F27T, D106Y
VL: B1 chain 2 with F32H
notes: Fab
For the molecule B7, the “fold enhanced binding” value with integrin αVβ3 [7] is more than 3 fold.

B8: LM609 grafted antibody variant P60 (Fab, V domains shown)
VH: B1 chain 1 with L61P, D106Y
VL: B1 chain 2 with F32H
notes: Fab
Consider B8, for which, in the test with integrin αVβ3 [7], the “fold enhanced binding” value was more than 3 fold.

B9: LM609 grafted antibody combinatorial clone C59 (Fab, V domains shown)
VH: B1 chain 1 with L61P
VL: B1 chain 2
notes: Fab
With B9, the “fold slower dissociation rate” value with integrin αVβ3 [5] was more than 10 fold. Moreover, in the test with integrin αVβ3 [8], the “IC50 (read off the curve)” value was approximately 0.06 µg/mL.

B10: LM609 grafted antibody variant Q96 (Fab, V domains shown)
VH: B1 chain 1 with D106Y
VL: B1 chain 2 with F32H, H96Q
notes: Fab
As for B10, the “fold enhanced binding” value with integrin αVβ3 [7] is more than 3 fold.

B11: LM609 grafted antibody variant W29 (Fab, V domains shown)
VH: B1 chain 1 with F29W, D106Y
VL: B1 chain 2 with F32H
notes: Fab
On to B11, for which the “fold enhanced binding” value in the test with integrin αVβ3 [7] is more than 3 fold.

B12: enhanced LM609 grafted antibody clone 2236-38/6H6LH (Fab, V domains shown)
VH: B1 chain 1 with L61P, N100L, Y101H, D106S
VL: B1 chain 2 with H96L
For B12, the affinity with integrin αVβ3 [6], expressed as Kd, was 0.9 nM. This counts as sub-nanomolar.

(Values after US20030166872A1 (APPLIED MOLECULAR EVOLUTION, published 2003).)
